Measured values: PMC7807754, “A novel protein encoded by circular SMO RNA is essential for Hedgehog signaling activation and glioblastoma tumorigenicity” (Genome Biology, 2021)

Target: T1, 6xHis-SMO (human, UniProt Q99835 28-787)
T1 construct: smoothened (SMO), human; The plasmid for the 6xHis-tagged protein is not described; source: 293T, transfected, purified (HisPur Ni-NTA Purification Kit)
Test: co-IP; in vitro IP with proteins purified from 293T: GFP or GFP-193a.a. incubated with 6xHis-SMO for 4 h at 4 °C, immunoprecipitation overnight at 4 °C, protein A/G agarose, washed with PBST 5 times, western blotting
Conditions: both partners purified

T1 sequence (Q99835 28-787): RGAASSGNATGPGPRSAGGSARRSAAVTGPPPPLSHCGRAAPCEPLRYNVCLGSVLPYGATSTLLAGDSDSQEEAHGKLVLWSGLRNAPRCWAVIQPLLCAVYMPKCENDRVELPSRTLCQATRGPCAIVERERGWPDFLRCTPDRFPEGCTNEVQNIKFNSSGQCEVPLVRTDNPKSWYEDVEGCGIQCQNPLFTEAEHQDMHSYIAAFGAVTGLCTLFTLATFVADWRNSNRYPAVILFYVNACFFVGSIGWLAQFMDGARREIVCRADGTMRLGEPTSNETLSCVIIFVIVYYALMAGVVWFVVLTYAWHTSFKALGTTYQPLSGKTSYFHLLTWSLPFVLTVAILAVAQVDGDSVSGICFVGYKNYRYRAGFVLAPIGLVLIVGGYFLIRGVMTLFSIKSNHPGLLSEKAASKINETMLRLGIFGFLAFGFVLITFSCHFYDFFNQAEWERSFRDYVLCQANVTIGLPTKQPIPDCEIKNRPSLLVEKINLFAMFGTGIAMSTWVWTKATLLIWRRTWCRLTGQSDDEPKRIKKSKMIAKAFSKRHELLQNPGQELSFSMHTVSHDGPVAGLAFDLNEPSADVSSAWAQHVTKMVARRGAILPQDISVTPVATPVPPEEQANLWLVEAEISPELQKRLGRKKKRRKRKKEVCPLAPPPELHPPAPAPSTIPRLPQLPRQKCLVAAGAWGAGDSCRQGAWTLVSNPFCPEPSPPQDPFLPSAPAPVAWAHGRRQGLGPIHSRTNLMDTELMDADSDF

B1: GFP-SMO-193a.a. (natural protein, human)
chain: MHSYIAAFGAVTGLCTLFTLATFVADWRNSNRYPAVILFYVNACFFVGSIGWLAQFMDGARREIVCRADGTMRLGEPTSNETLSCVIIFVIVYYALMAGVVWFVVLTYAWHTSFKALGTTYQPLSGKTSYFHLLTWSLPFVLTVAILAVAQVDGDSVSGICFVGYKNYRYRAGFVLAPIGLVLIVGGYFLIRE
notes: SMO (smoothened), human, amino acids 230-421; the open reading frame of circ-SMO; extra Glu at the C-terminal, not part of linear SMO; The plasmid for the GFP-tagged protein is not described; source: 293T, transfected, purified (anti-GFP antibody, Catch and Release v2.0 Reversible Immunoprecipitation System)
- binding result: binds
